From article PMC8551067 (Biochemistry, 2021) come the findings set out here.

As a reminder, the stoichiometry N is the number of molecules, sites or subunits per partner or assembly. For orientation: Km means the concentration of substrate that gives half-maximal velocity. In general, kcat refers to the number of substrate molecules converted per active site and unit of time at saturation. By kcat/Km is commonly meant the second-order rate constant that governs catalysis at low substrate concentration.

Series [1] concerns the target S723F-PvCPS-α (prenyltransferase α domain of copalyl diphosphate synthase from Penicillium verruculosum, S723F variant) (Penicillium verruculosum). In words: crystal structure.
For series [2], the target named is PvCPS (full-length copalyl diphosphate synthase) (Talaromyces verruculosus, UniProt A0A348FUE1, S723T). The conditions noted are these: substrate inhibition constant; 1 mM DMAPP, 1 mM MgCl2, pH 7.5.
Substrate in series [3]: C=C(C)CCO[P@@](=O)(O)OP(=O)(O)O
Put plainly: purified protein. The conditions noted are these: prenyltransferase activity, 1 mM DMAPP, 1 mM MgCl2, pH 7.5.

As to “S723F-PvCPS-α (prenyltransferase α domain of copalyl diphosphate synthase from Penicillium verruculosum, S723F variant) (domain or fragment)”, the stoichiometry N in series [1] amounted to 6.

Molecule `C=C(C)CCOP(=O)(O)OP(=O)(O)O` [isopentenyl diphosphate] gave an S723T in series [2] of 700 ± 100 µM.

B1: PvCPS (full-length copalyl diphosphate synthase) (Talaromyces verruculosus; H786A) (protein)
chain: MSPMDLQESAAALVRQLGERVEDRRGFGFMSPAIYDTAWVSMISKTIDDQKTWLFAECFQYILSHQLEDGGWAMYASEIDAILNTSASLLSLKRHLSNPYQITSITQEDLSARINRAQNALQKLLNEWNVDSTLHVGFEILVPALLRYLEDEGIAFAFSGRERLLEIEKQKLSKFKAQYLYLPIKVTALHSLEAFIGAIEFDKVSHHKVSGAFMASPSSTAAYMMHATQWDDECEDYLRHVIAHASGKGSGGVPSAFPSTIFESVWPLSTLLKVGYDLNSAPFIEKIRSYLHDAYIAEKGILGFTPFVGADADDTATTILVLNLLNQPVSVDAMLKEFEEEHHFKTYSQERNPSFSANCNVLLALLYSQEPSLYSAQIEKAIRFLYKQFTDSEMDVRDKWNLSPYYSWMLMTQAITRLTTLQKTSKLSTLRDDSISKGLISLLFRIASTVVKDQKPGGSWGTRASKEETAYAVLILTYAFYLDEVTESLRHDIKIAIENGCSFLSERTMQSDSEWLWVEKVTYKSEVLSEAYILAALKRAADLPDENAEAAPVINGISTNGFEHTDRINGKLKVNGTNGTNGSHETNGINGTHEIEQINGVNGTNGHSDVPHDTNGWVEEPTAINETNGHYVNGTNHETPLTNGISNGDSVSVHTDHSDSYYQRSDWTADEEQILLGPFDYLESLPGKNMRSQLIQSFNTWLKVPTESLDVIIKVISMLHTASLLIDDIQDQSILRRGQPVAHSIFGTAQAMNSGNYVYFLALREVQKLQNPKAISIYVDSLIDLARGQGMELFWRDSLMCPTEEQYLDMVANKTGGLFCLAIQLMQAEATIQVDFIPLVRLLGIIFQICDDYLNLKSTAYTDNKGLCEDLTEGKFSFPIIHSIRSNPGNRQLINILKQKPREDDIKRYALSYMESTNSFEYTRGVVRKLKTEAIDTIQGLEKHGLEENIGIRKILARMSLEL
With B1, in series [3], the Km worked out at 160 ± 10 µM, the kcat is 0.027 s⁻¹ and the kcat/Km came to 170 M⁻¹ s⁻¹.

B2: PvCPS (full-length copalyl diphosphate synthase) (Talaromyces verruculosus; S723T) (protein)
chain: MSPMDLQESAAALVRQLGERVEDRRGFGFMSPAIYDTAWVSMISKTIDDQKTWLFAECFQYILSHQLEDGGWAMYASEIDAILNTSASLLSLKRHLSNPYQITSITQEDLSARINRAQNALQKLLNEWNVDSTLHVGFEILVPALLRYLEDEGIAFAFSGRERLLEIEKQKLSKFKAQYLYLPIKVTALHSLEAFIGAIEFDKVSHHKVSGAFMASPSSTAAYMMHATQWDDECEDYLRHVIAHASGKGSGGVPSAFPSTIFESVWPLSTLLKVGYDLNSAPFIEKIRSYLHDAYIAEKGILGFTPFVGADADDTATTILVLNLLNQPVSVDAMLKEFEEEHHFKTYSQERNPSFSANCNVLLALLYSQEPSLYSAQIEKAIRFLYKQFTDSEMDVRDKWNLSPYYSWMLMTQAITRLTTLQKTSKLSTLRDDSISKGLISLLFRIASTVVKDQKPGGSWGTRASKEETAYAVLILTYAFYLDEVTESLRHDIKIAIENGCSFLSERTMQSDSEWLWVEKVTYKSEVLSEAYILAALKRAADLPDENAEAAPVINGISTNGFEHTDRINGKLKVNGTNGTNGSHETNGINGTHEIEQINGVNGTNGHSDVPHDTNGWVEEPTAINETNGHYVNGTNHETPLTNGISNGDSVSVHTDHSDSYYQRSDWTADEEQILLGPFDYLESLPGKNMRSQLIQSFNTWLKVPTESLDVIIKVISMLHTATLLIDDIQDQSILRRGQPVAHSIFGTAQAMNSGNYVYFLALREVQKLQNPKAISIYVDSLIDLHRGQGMELFWRDSLMCPTEEQYLDMVANKTGGLFCLAIQLMQAEATIQVDFIPLVRLLGIIFQICDDYLNLKSTAYTDNKGLCEDLTEGKFSFPIIHSIRSNPGNRQLINILKQKPREDDIKRYALSYMESTNSFEYTRGVVRKLKTEAIDTIQGLEKHGLEENIGIRKILARMSLEL
As to B2, in series [3], the Km is 36 ± 3 µM, the kcat was found to be 0.051 s⁻¹ and the kcat/Km came to 1400 M⁻¹ s⁻¹.

B3: PvCPS (full-length copalyl diphosphate synthase) (Talaromyces verruculosus; F760A) (protein)
chain: MSPMDLQESAAALVRQLGERVEDRRGFGFMSPAIYDTAWVSMISKTIDDQKTWLFAECFQYILSHQLEDGGWAMYASEIDAILNTSASLLSLKRHLSNPYQITSITQEDLSARINRAQNALQKLLNEWNVDSTLHVGFEILVPALLRYLEDEGIAFAFSGRERLLEIEKQKLSKFKAQYLYLPIKVTALHSLEAFIGAIEFDKVSHHKVSGAFMASPSSTAAYMMHATQWDDECEDYLRHVIAHASGKGSGGVPSAFPSTIFESVWPLSTLLKVGYDLNSAPFIEKIRSYLHDAYIAEKGILGFTPFVGADADDTATTILVLNLLNQPVSVDAMLKEFEEEHHFKTYSQERNPSFSANCNVLLALLYSQEPSLYSAQIEKAIRFLYKQFTDSEMDVRDKWNLSPYYSWMLMTQAITRLTTLQKTSKLSTLRDDSISKGLISLLFRIASTVVKDQKPGGSWGTRASKEETAYAVLILTYAFYLDEVTESLRHDIKIAIENGCSFLSERTMQSDSEWLWVEKVTYKSEVLSEAYILAALKRAADLPDENAEAAPVINGISTNGFEHTDRINGKLKVNGTNGTNGSHETNGINGTHEIEQINGVNGTNGHSDVPHDTNGWVEEPTAINETNGHYVNGTNHETPLTNGISNGDSVSVHTDHSDSYYQRSDWTADEEQILLGPFDYLESLPGKNMRSQLIQSFNTWLKVPTESLDVIIKVISMLHTASLLIDDIQDQSILRRGQPVAHSIFGTAQAMNSGNYVYALALREVQKLQNPKAISIYVDSLIDLHRGQGMELFWRDSLMCPTEEQYLDMVANKTGGLFCLAIQLMQAEATIQVDFIPLVRLLGIIFQICDDYLNLKSTAYTDNKGLCEDLTEGKFSFPIIHSIRSNPGNRQLINILKQKPREDDIKRYALSYMESTNSFEYTRGVVRKLKTEAIDTIQGLEKHGLEENIGIRKILARMSLEL
As to B3, in series [3], the Km amounted to 38 ± 1 µM, the kcat was 0.0279 s⁻¹ and the kcat/Km came to 740 M⁻¹ s⁻¹.

B4: PvCPS (full-length copalyl diphosphate synthase) (Talaromyces verruculosus; S723F) (protein)
chain: MSPMDLQESAAALVRQLGERVEDRRGFGFMSPAIYDTAWVSMISKTIDDQKTWLFAECFQYILSHQLEDGGWAMYASEIDAILNTSASLLSLKRHLSNPYQITSITQEDLSARINRAQNALQKLLNEWNVDSTLHVGFEILVPALLRYLEDEGIAFAFSGRERLLEIEKQKLSKFKAQYLYLPIKVTALHSLEAFIGAIEFDKVSHHKVSGAFMASPSSTAAYMMHATQWDDECEDYLRHVIAHASGKGSGGVPSAFPSTIFESVWPLSTLLKVGYDLNSAPFIEKIRSYLHDAYIAEKGILGFTPFVGADADDTATTILVLNLLNQPVSVDAMLKEFEEEHHFKTYSQERNPSFSANCNVLLALLYSQEPSLYSAQIEKAIRFLYKQFTDSEMDVRDKWNLSPYYSWMLMTQAITRLTTLQKTSKLSTLRDDSISKGLISLLFRIASTVVKDQKPGGSWGTRASKEETAYAVLILTYAFYLDEVTESLRHDIKIAIENGCSFLSERTMQSDSEWLWVEKVTYKSEVLSEAYILAALKRAADLPDENAEAAPVINGISTNGFEHTDRINGKLKVNGTNGTNGSHETNGINGTHEIEQINGVNGTNGHSDVPHDTNGWVEEPTAINETNGHYVNGTNHETPLTNGISNGDSVSVHTDHSDSYYQRSDWTADEEQILLGPFDYLESLPGKNMRSQLIQSFNTWLKVPTESLDVIIKVISMLHTAFLLIDDIQDQSILRRGQPVAHSIFGTAQAMNSGNYVYFLALREVQKLQNPKAISIYVDSLIDLHRGQGMELFWRDSLMCPTEEQYLDMVANKTGGLFCLAIQLMQAEATIQVDFIPLVRLLGIIFQICDDYLNLKSTAYTDNKGLCEDLTEGKFSFPIIHSIRSNPGNRQLINILKQKPREDDIKRYALSYMESTNSFEYTRGVVRKLKTEAIDTIQGLEKHGLEENIGIRKILARMSLEL
As for B4, in series [3], the Km is 50 ± 10 µM, the kcat was 0.11 s⁻¹ and the kcat/Km is 2200 M⁻¹ s⁻¹.
